For the assay, the target named is CtBP2(WT) (human) (UniProt P56545). The assay is described as follows: SEC; analytical Superose 6 3.2/300 GL, 50 mM HEPES (pH 7.2), 150 mM NaCl; CtBP kept at 100 µM, RAI2 variants titrated at ratios 1:0.1 to 1:2; proteins also run alone; assembly stoichiometries estimated from the elution volumes.

“CtBP2(WT), P56545 1-445 (natural protein; other documents disagree on this pair)”: the stoichiometry N is 4.

As usually defined, the stoichiometry N is the number of molecules, sites or subunits per partner or assembly.

(Values after article PMC11187106.)
